{
  "source": "paper PMC12529457",
  "about": "“Selection of DNA Aptamers Against Parathyroid Hormone for Electrochemical Impedimetric Biosensor System Development”",
  "binders": {"B1": {"name": "Aptamer-PTH (1-84) (ssDNA)", "DNA": "TATTGGTATGTGCGTCGTCGGTGACCTCTTTCACGGCCGG"}, "B2": {"name": "Aptamer-PTH (53-84) (ssDNA)", "DNA": "GCGTGGTATGTGCGTCGTCGCTAATGAATTTGTAGCCTAC"}, "B3": {"name": "Aptamer-PTH (1-34) (ssDNA)", "DNA": "GCGTGGTATGTGCATCGTCAGTGAGGGGTTGGCGGCCGAG"}},
  "assay_in_all_cases": "fluorescent magnetic bead binding assay; peptide on beads, aptamer 100-2500 nM; Bead assay: SELEX conditions (PBS, room temperature), 30 min incubation then wash, pH not stated; EIS: 30 min at ambient temperature, PBS wash, read in 0.1 M KCl with 5 mM ferri/ferrocyanide",
  "conditions_in_all_cases": "protein: commercial; tags: none stated; amine-coupled to carboxy magnetic beads",
  "key": {"PTH (1-84)": {"biological_target": "T1, PTH (1-84) (UniProt P01270 32-115)", "T1 sequence": "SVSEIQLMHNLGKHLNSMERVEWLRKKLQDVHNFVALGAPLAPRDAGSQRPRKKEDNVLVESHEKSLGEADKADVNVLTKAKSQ"}, "PTH (53-84)": {"biological_target": "T2, PTH (53-84) (UniProt P01270 84-115)", "T2 chain": "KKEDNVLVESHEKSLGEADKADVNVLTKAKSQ"}, "PTH (1-34)": {"biological_target": "T3, PTH (1-34) (UniProt P01270 32-65)", "T3 chain": "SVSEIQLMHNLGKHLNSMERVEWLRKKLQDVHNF"}},
  "data": [
    {"binder": "B1", "values": [
      {"measurement": "Kd", "setting": "PTH (1-84)", "value": "340 ± 23.3", "unit": "nM"}
    ]},
    {"binder": "B2", "values": [
      {"measurement": "Kd", "setting": "PTH (53-84)", "value": "220 ± 57.5", "unit": "nM"}
    ]},
    {"binder": "B3", "values": [
      {"measurement": "Kd", "setting": "PTH (1-34)", "value": "516 ± 41", "unit": "nM"}
    ]}
  ]
}
